Entries after “also recorded” stand apart in the source; their conditions may differ.
B1: hemocoagulase (protein)
chain 1: DCSSGWSSYEGHCYKVFKQSKTWADAESFCTKQVNGGHLVSLESSGEADFVGQLLAQKLKSAKLHVWLGLRAQNKEKQCSLQWSDGSSLSYENWLEEESKKCLGVHLETGFHKWENFYCEQQDPFVCEA
chain 2: DCPSDWSSYEGHCYKPFNEPKNWADAENFCTKQHTGGHLVSFQSTEEADFVVKLAFQTFDYGLFWFGLSKLWNQCNWQWSNAAMLKYTDWAEESYCVYFKSTNNKWRSLTCRMLANFVCEFQA

Experiments:
[1] = test system: hemocoagulase of Agkistrodon acutus; assay: effect of PMSF on the agglutination time of the hemocoagulase; format: biochemical
Protocol: (§1) 1% bovine fibrinogen (Sigma Company) solution was prepared with physiological saline.
(§2) The operational steps of the experiment were as follows:
(§3) (1) 2 ml 1% bovine fibrinogen solution was kept at constant temperature of 37° C. for 5 min;
(§4) (2) 3 tubes were respectively marked with 1 #, 2 #, 3 #, then 200 μl hemocoagulase solution (5 u/ml) diluted one time with distilled water was added into each of 3 tubes;
(§5) (3) 10 μl distilled water was added into tube 1#, 10 μl isopropanol was added into tube 2#, and 10 μl PMSF was added into tube 3#, and the tubes were kept at constant temperature of 37° C. in water bath for 5 min;
(§6) (4) Observations of the agglutination experiments were carried out separately in the order of the numbering of the above tubes. 200 μl 1% bovine fibrinogen solution at constant temperature was added into each of the tubes respectively, followed by counting time immediately and shaking the tube gently; then the tube was kept to stand in water bath of 37° C. The agglutination reaction was observed. When the solution was completely coagulated, time-counting was finished.

bovine fibrinogen [2] = assay: enzymatic activity assay (bovine fibrinogen assay or normal human plasma assay); format: biochemical; settings: hemocoagulase of Example 2 further purified by HPLC
Protocol: The above dialyzed enzyme solution was loaded on a pre-equilibrated DEAE-Sepharose Fast Flow anion exchange chromatography column, and the column was eluted with 0.01M, pH7.4 PBS. Then, the stepwise elution was conducted with 0.01M, pH7.4 PBS containing 0.02M, 0.04M, 0.06M, 1.0M NaCl respectively, and the second eluting peak of 0.06M NaC1 eluent was collected to obtain 1,050 ml of eluent. […] The 1,050 ml eluent was ultra-filtrated to 135 ml by Millipore Pellicon 2 tangential flow ultra-filter (0.1M^2 cut off 5 k membrane). The 135 ml ultra-filtrated solution was poured into a dialysis bag and dialyzed against deionized water for 24 hours, and the deionized water was changed 3 times during the dialysis. After dialysis, the volume of the enzyme solution is 159 ml, and the determined content of the total protein in the solution is 240 mg, the determined specific activity of the enzyme is 195 u/mg protein and a final yield of 0.8%. […]
1 ml 1.0% bovine fibrinogen (Sigma company) prepared with physiological saline was added to a tube, kept at 37±0.5° C. in water bath for 3 min, followed by adding 1 ml 37±0.5° C. preheated enzymatic solution to be determined was added into the tube while counting time immediately; if white flocs appeared in the bovine fibrinogen solution by shaking it within 120±30 seconds, the activity unit of the enzymatic solution is determined to be 1 u/ml. […]

bovine fibrinogen [3] = assay: agglutination experiment, time to complete coagulation of bovine fibrinogen solution; format: biochemical; settings: 200 μl hemocoagulase solution (5 u/ml), 200 μl 1% bovine fibrinogen, 37° C.
Protocol: as §1, §2, §3, §4, §5, §6

human fibrinogen = assay: hydrolyzing human fibrinogen with the hemocoagulase, SDS-PAGE; format: biochemical; settings: for band of alpha subunit of human fibrinogen: hemocoagulase 1 unit, 37° C.
Protocol: A 4 mg/ml human fibrinogen solution was prepared with 50 mM Tris-HCl buffer solution(pH 7.4). 0.5 ml human fibrinogen solution were respectively added into each of 5 tubes; 1 activity unit of the purified hemocoagulase was separately added into each of 4 tubes according to 4 different time intervals of heat preservation time for hydrolyzing, and the tubes were kept at 37° C. in water bath for 4 h, 2 h, 1 h and 0.5 h, respectively; after that, SDS-PAGE was carried out immediately to observe the hydrolyzing degree of the human fibrinogen. Meanwhile, another tube containing 0.5 ml of the human fibrinogen solution was kept at 37° C. in water bath for 4 h as a control.

[4] = isoelectric focusing electrophoresis analysis; format: physicochemical
Protocol: The above dialyzed enzyme solution was loaded on a pre-equilibrated DEAE-Sepharose Fast Flow anion exchange chromatography column, and the column was eluted with 0.01M, pH7.4 PBS. Then, the stepwise elution was conducted with 0.01M, pH7.4 PBS containing 0.02M, 0.04M, 0.06M, 1.0M NaCl respectively, and the second eluting peak of 0.06M NaC1 eluent was collected to obtain 1,050 ml of eluent. […] The 1,050 ml eluent was ultra-filtrated to 135 ml by Millipore Pellicon 2 tangential flow ultra-filter (0.1M^2 cut off 5 k membrane). The 135 ml ultra-filtrated solution was poured into a dialysis bag and dialyzed against deionized water for 24 hours, and the deionized water was changed 3 times during the dialysis. After dialysis, the volume of the enzyme solution is 159 ml, and the determined content of the total protein in the solution is 240 mg, the determined specific activity of the enzyme is 195 u/mg protein and a final yield of 0.8%. The protein has a HPLC purity of 98.2%, and two protein bands were shown by reduced SDS-PAGE with the molecular weight of about 15 kDa and 14.5 kDa, respectively. The enzyme has an isoelectric point(pI) of 5.5 by isoelectric focusing electrophoresis analysis.

Molecule	Agglutination time ([1]; 10 μl PMSF (4 mg/ml in isopropanol), 200 μl hemocoagulase solution (5 u/ml), 200 μl 1% bovine fibrinogen, 37° C.) [s]	inhibition of the activity of the hemocoagulase ([1]; 100 ppm PMSF)	enzyme activity of the solution (bovine fibrinogen [2]) [u/ml]	Agglutination time (bovine fibrinogen [3]; 10 μl distilled water) [s]	Agglutination time (bovine fibrinogen [3]; 10 μl isopropanol) [s]	hydrolysis of the alpha chain (alpha subunit) of human fibrinogen (human fibrinogen)	band of alpha subunit of human fibrinogen (human fibrinogen; treated for 0.5 h and 1 h)	band of alpha subunit of human fibrinogen (human fibrinogen; treated for 2 h and 4 h)	isoelectric point (pI) [4]
O=S(=O)(F)Cc1ccccc1 [PMSF, Phenylmethanesulfonyl fluoride]	> 600	completely inhibits							
B1			10	50	50	able to hydrolyze the alpha chain of human fibrinogen; also recorded: has the function of hydrolyzing the alpha subunit of the human fibrinogen	became gradually light	disappeared completely	5.5

Source: US8476054B2, “Thrombin-like enzyme of Agkistrodon acutus” (Konruns Pharmaceutical Co., Ltd., priority 2008, dated 2013)
